Among the data in patent publication US8030025B2 are IC50, Tie2 phosphorylation in mouse lung endothelium and IC90 values, retold here.

Test [1] has as its target biotinylated human angiopoietin 2 (human) (UniProt O15123). Nature of the test: angiopoietin:Tie2 neutralization HTRF; biotin-hAng2 vs Tie2-APC. Background: In TR-FRET formats the signal depends on donor and acceptor labels being close together.
Test [2] has as its target biotinylated human angiopoietin 1 (human) (UniProt Q15389). As to the kind of experiment: angiopoietin:Tie2 neutralization HTRF; biotin-hAng1 vs Tie2-APC.
In test [3] the target is Tie2 in mouse lung endothelium (mouse) (UniProt Q02858).
Test [4] deals with Human Ang1 (human) (UniProt Q15389). Nature of the test: angiopoietin:Tie2 neutralization ELISA; coated angiopoietin vs hTie2-Fc.
Test [5] concerns the target Murine Ang2 (mouse) (UniProt O35608). The test is described as above.
In test [6] the target is Cyno Ang2 (cynomolgus monkey). The description is as above.
In test [7] the target is Rabbit Ang1 (rabbit) (UniProt G1SK98). The description is as above.
Test [8] has as its target Human Ang2 (human) (UniProt O15123). The description is as above.
Test [9] deals with Murine Ang1 (mouse) (UniProt O08538). The test is described as above.
For test [10], the target named is Cyno Ang1 (cynomolgus monkey). The description is as above.
Test [11] deals with Human Ang1 (human) (UniProt Q15389). As to the kind of experiment: neutralization ELISA; coated angiopoietin vs Tie2-Fc. A general note: In an ELISA, binding on a coated surface is turned into a signal by an enzyme label.
Test [12] addresses Murine Ang2 (mouse) (UniProt O35608). The description is as above.
Test [13] has as its target Cyno Ang2 (cynomolgus monkey). The description is as above.
Test [14] addresses Rabbit Ang1 (rabbit) (UniProt G1SK98). The test is described as above.
For test [15], the target named is Human Ang2 (human) (UniProt O15123). Described as above.
Test [16] concerns the target Rabbit Ang2 (rabbit) (UniProt G1T9B3). The test is described as above.
Test [17] has as its target Murine Ang1 (mouse) (UniProt O08538). Described as above.
In test [18] the target is Cyno Ang1 (cynomolgus monkey). Described as above.
The target of test [19] is biotinylated human angiopoietin 2 (human) (UniProt O15123). Nature of the test: HTRF neutralization; biotin-hAng2 vs huTie-2-Fc-APC.
Test [20] concerns the target biotinylated human angiopoietin 1 (human) (UniProt Q15389). As to the kind of experiment: HTRF neutralization; biotin-hAng1 vs huTie-2-Fc-APC.

Values joined by “and” are separate entries in the source; they are usually repeats but may differ in a detail not shown here. Equal entries are not always repeated. A value given as a limit tells only on which side of the number the result lay.

As to L1-7(N) (Fc fusion), the IC50 (in general, the concentration needed to halve the response being measured) in [1] is 0.064 nM; in [2], greater than 10000 nM.
In [3], “recombinant Ang1 (R&D Systems Inc.) (ligand)” yielded a Tie2 phosphorylation in mouse lung endothelium of 5 fold.
On to Fc, for which the IC50 in [4], in [5], in test [6], in [7], in test [8] and in test [9] was greater than 10000 nM throughout. In addition, the half-maximal inhibitory concentration (IC50) in test [10], in test [1] and in test [2] was greater than 10000 nM each time.
Take AMG 386 (Fc fusion): the IC50 in test [11] is 1.2 nM; in test [12] it was 0.1 nM; in [13] it was 0.17 nM; in test [14] it was 4.3 nM; in [15] it was 0.12 nM; in test [16], 0.1 nM. The IC50 was 2.7 nM in test [17]; 2.9 nM in [18]; 0.03 nM in test [19]; 2.6 nM and 3.9 nM in [20]; 0.029 nM in test [1]; 6.2 nM in test [2]. Also, the 90% effect concentration (IC90) (in general, the concentration at which the effect reaches the 90% level) was 0.13 nM and 0.15 nM in [19]; 106 nM and 278 nM in [20].
